From US20230365956A1

Key:
[1] = molecular target: SARS-CoV-2 RBD, wild type (Sino Biological) (SARS-CoV-2) (UniProt P0DTC2); assay: BLI, avidity format: response at highest analyte concentration
[2] = molecular target: SARS-CoV-2 RBD, wild type (Sino Biological) (SARS-CoV-2) (UniProt P0DTC2); assay: BLI, avidity format: biotinylated RBD on SA sensor, binder in solution
[3] = molecular target: SARS-CoV-2 RBD, wild type (Sino Biological) (SARS-CoV-2) (UniProt P0DTC2); assay: BLI, affinity format: binder on AHC sensor, RBD in solution
[4] = molecular target: SARS-CoV-2 RBD, wild type (Sino Biological) (SARS-CoV-2) (UniProt P0DTC2); assay: BLI, affinity format: response at highest analyte concentration

Cilgavimab (antibody)
Response [1]: 0.64 nm shift | Kd [2]: 0.21 nM | koff [2]: 6.53e-05 s⁻¹ | kon [2]: 312000 M⁻¹ s⁻¹ | Kd [3]: 3.98 nM | koff [3]: 0.00172 s⁻¹ | kon [3]: 434000 M⁻¹ s⁻¹ | Response [4]: 0.397 nm shift
